The target of one series is T1, NS3a/grazoprevir complex (Hepatitis C virus genotype 1a, UniProt P27958, C1073S/C1078L/C1185S/I1043Q/I1044E/I1098T/L1039E/L1040E/L1047Q/L1179I/N1200S/P1112Q/Q1106K/T1100M/T1173A).
T1 construct: made in house; host or cells: E. coli BL21 (DE3), pDW363 with BirA
The series is described as follows: Yeast surface display binding and titration. On the set-up: key to relative binding: +: Relative binding of different NS3a/inhibitor complexes is given for conditions where binding was too weak to achieve full titration curves on yeast, indicating binding in the low-to-mid micromolar-range, or weaker.; ++: Relative binding of different NS3a/inhibitor complexes is given for conditions where binding was too weak to achieve full titration curves on yeast, indicating binding in the low-to-mid micromolar-range, or weaker.; +++: Relative binding of different NS3a/inhibitor complexes is given for conditions where binding was too weak to achieve full titration curves on yeast, indicating binding in the low-to-mid micromolar-range, or weaker. The note with it: for Fold drug specificity: danoprevir/NS3a over grazoprevir/NS3a; for relative binding / Kd: yeast-displayed design, NS3a/grazoprevir complex; for Kd: apparent, read-out: KD (nM) ± standard deviation. From the text:
(§1) ; these sorts are denoted as “avid” below. […] See FIG. 30a for yeast gating strategies.
(§2) […]. Curves were fit using Graphpad Prism 5 to a one-site specific binding model with Hill coefficient.

Another series concerns the target T2, NS3a/asunaprevir complex (Hepatitis C virus genotype 1a, UniProt P27958, C1073S/C1078L/C1185S/I1043Q/I1044E/I1098T/L1039E/L1040E/L1047Q/L1179I/N1200S/P1112Q/Q1106K/T1100M/T1173A).
T2 construct: made in house; host or cells: E. coli BL21 (DE3), pDW363 with BirA
In words: Yeast surface display binding and titration. Also noted: key to relative binding: +: Relative binding of different NS3a/inhibitor complexes is given for conditions where binding was too weak to achieve full titration curves on yeast, indicating binding in the low-to-mid micromolar-range, or weaker.; ++: Relative binding of different NS3a/inhibitor complexes is given for conditions where binding was too weak to achieve full titration curves on yeast, indicating binding in the low-to-mid micromolar-range, or weaker.; +++: Relative binding of different NS3a/inhibitor complexes is given for conditions where binding was too weak to achieve full titration curves on yeast, indicating binding in the low-to-mid micromolar-range, or weaker. The settings on record: for relative binding / Kd: yeast-displayed design, NS3a/asunaprevir complex; for Kd: apparent, read-out: KD (nM) ± standard deviation.
Description: as §1, §2

The target in a further series is T3, NS3a/danoprevir complex (Hepatitis C virus genotype 1a, UniProt P27958, C1073S/C1078L/C1185S/I1043Q/I1044E/I1098T/L1039E/L1040E/L1047Q/L1179I/N1200S/P1112Q/Q1106K/T1100M/T1173A).
T3 construct: made in house; host or cells: E. coli BL21 (DE3), pDW363 with BirA
The series is described as follows: Yeast surface display binding and titration. The settings on record: for binding to NS3a/danoprevir complex: yeast surface display; for relative binding / Kd: yeast-displayed design, NS3a/danoprevir complex; for Kd: apparent, read-out: KD (nM) ± standard deviation; for Fold drug specificity: grazoprevir/NS3a over danoprevir/NS3a. Also noted: key to relative binding: +: Relative binding of different NS3a/inhibitor complexes is given for conditions where binding was too weak to achieve full titration curves on yeast, indicating binding in the low-to-mid micromolar-range, or weaker.; ++: Relative binding of different NS3a/inhibitor complexes is given for conditions where binding was too weak to achieve full titration curves on yeast, indicating binding in the low-to-mid micromolar-range, or weaker.; +++: Relative binding of different NS3a/inhibitor complexes is given for conditions where binding was too weak to achieve full titration curves on yeast, indicating binding in the low-to-mid micromolar-range, or weaker.
Description: as §1, §2

For series [1] the following is noted: 100 μM free drug unable to disrupt DNCR2/danoprevir/NS3a complex on yeast.
The target of another series is T4, apo NS3a (Hepatitis C virus genotype 1a, UniProt P27958, C1073S/C1078L/C1185S/I1043Q/I1044E/I1098T/L1039E/L1040E/L1047Q/L1179I/N1200S/P1112Q/Q1106K/T1100M/T1173A).
T4 construct: made in house; host or cells: E. coli BL21 (DE3), pDW363 with BirA
In words: Yeast surface display binding.
Description: as §1, §2

For series [2], the system named is PI3K-Akt signaling in COS-7 cells. In words: AKT Western blots. The class given is cell-based. The settings on record: DNCR2 fused to inter-SH2 domain of p85, danoprevir. The method, then: COS-7 cells (ATCC), were plated in 24-well plates at 2×10^5 cells/mL (0.5 mL volume). […] One day after transfection, cells were washed once with DPBS, and media was replaced with serum-free DMEM. After serum-starving for 22 hours, cells were exposed to a 15-min drug treatment using 12, 3-fold dilutions of danoprevir from 5 μM to 0 μM, in triplicate. After drug treatment, cells were washed once in DPBS, then lysed in 50 μL modified RIPA buffer (50 mM Tris-HCl, pH 7.8, 1% v/v IGEPAL CA-630, 150 mM NaCl, 1 mM EDTA, 1× Pierce Protease Inhibitor Tablet) for 30 minutes on ice. Cell debris was cleared by centrifugation at […] for 10 min at 4° C. Lysate was mixed with protein loading dye and denatured at 95° C. for 7 minutes then run on an SDS-PAGE gel (Criterion, Bio-Rad) and transferred to nitrocellulose. Blocking and primary antibody incubations were done in a 1:1 mix of TBS plus 0.1% v/v Tween-20 (TBST) and blocking buffer (Odyssey). Primary antibodies used were pSER473 AKT (1:2000, Cell Signaling Technologies #4060), and pan-AKT (1:2000, Cell Signaling Technologies #2920). […]
(In general: In western blotting, separated proteins are transferred to a membrane and probed.)

For another series, the system named is NS3a in NIH3T3 cells. The series is described as follows: Confocal microscopy for colocalization analysis (fixed cells). The format is cell-based. The note with it: 5 μM drug, 15 min.
[3] abbreviates: danoprevir/NS3a over asunaprevir/NS3a.
The mark [4] stands for this setting: grazoprevir/NS3a over asunaprevir/NS3a.

Positions count from the first letter of the chain named. Values joined by “and” are separate entries in the source; they are usually repeats but may differ in a detail not shown here. Identical values can stand only once. A value given as a limit tells only on which side of the number the result lay.

B1: D5: computational design on DHR79 scaffold binding danoprevir/NS3a complex, SEQ ID NO: 10 (protein)
chain: SSDEEEARELIERAKEAAERAQEAAERTGDPRVRELARELKRLAQEAAEEVKRDPSSSDVNEALKLIVEAIEAAVDALEAAERTGDPEVRELARELVRLAVEAAEEVQRNPSSSDVNEALLTIVIAIEAAVNALEAAERTGDPEVRELARELVRLAVEAAEEVQRNPSSREVNIALWKIVLAIQEAVESLREAEESGDPEKREKARERVREAVERAEEVQRDPSGWLNH
Regarding B1, the Fold drug specificity entry was “none” in the series with NS3a/grazoprevir complex and “modest” with NS3a/asunaprevir complex (setting [3]). In addition, the relative binding entry is on record as “+++” with NS3a/grazoprevir complex, “+” with NS3a/asunaprevir complex and “++” with NS3a/danoprevir complex. For the same molecule, the “binding to NS3a/danoprevir complex” value in the series with NS3a/danoprevir complex is recorded as “modest, drug-dependent binding”.

B2: DNCR2: danoprevir/NS3a complex reader, final variant with 14 mutations from D5, SEQ ID NO: 8 (protein)
chain: SSDEEEARELIERAKEAAERAQEAAERTGDPRVRELARELKRLAQEAAEEVKRDPSSSDVNEALKLIVEAIEAAVDALEAAERTGDPEVRELARELVRLAVEAAEEVQRNPSSSDVNEALHSIVYAIEAAIFALEAAERTGDPEVRELARELVRLAVEAAEEVQRNPSSRNVEHALMRIVLAIYLAEENLREAEESGDPEKREKARERVREAVERAEEVQRDPSGWLNH
Regarding B2, in series [1], the “binding to danoprevir alone” value is reported as “does not appear to bind substantially to danoprevir alone”. For the same molecule, the “binding to apo NS3a” value with apo NS3a is recorded as “no detectable binding”. For the same molecule, the PI3K-Akt signaling activation entry in series [2] was “capable of activating PI3K-Akt signaling”. The Kd with NS3a/grazoprevir complex was 2000 ± 100 nM; with NS3a/asunaprevir complex it was 770 ± 50 nM; in the series with NS3a/danoprevir complex it was 0.036 ± 0.0002 nM. Further, the figures for the Fold drug specificity in the series with NS3a/grazoprevir complex and in the series with NS3a/asunaprevir complex (setting [3]) were 56,000 fold and 21,000 fold, respectively. The “specificity over NS3a bound to the drugs grazoprevir or asunaprevir” value with NS3a/danoprevir complex is given as > 20,000 fold.

B3: ANR—BFP-CAAX: plasma membrane-targeted ANR-BFP fusion (protein)
chain: MGELDELVYLLDGPGYDPIHSDGSGTGSGTGSGTGTTSGTGTGGSTGGELDELVYLLDGPGYDPIHSDGSGTGSGTGSGTGTTSGTGTGGSTGEQKLISEEDLGSGSSELIKENMHMKLYMEGTVDNHHFKCTSEGEGKPYEGTQTMRIKVVEGGPLPFAFDILATSFLYGSKTFINHTQGIPDFFKQSFPEGFTWERVTTYEDGGVLTATQDTSLQDGCLIYNVKIRGVNFTSNGPVMQKKTLGWEAFTETLYPADGGLEGRNDMALKLVGGSHLIANIKTTYRSKKPAKNLKMPGVYYVDYRLERIKEANNETYVEQHEVAVARYCDLPSKLGHKLNRKHKEKMSKDGKKKKKKSKTKCVIM
As to B3, in the series on NS3a in NIH3T3 cells, the “Colocalization of NS3a-mCherry with ANR-BFP-CAAX or NLS-DNCR2-EGFP” value is on record as “pre-localized NS3a-mCherry™ to the plasma membrane”.

B4: G3: computational design on DHR18 scaffold binding grazoprevir/NS3a complex, SEQ ID NO: 12 (protein)
chain: DIEKLCKKAEEEAKEAQEKADELRQRHPDSQAAEDAEDLANEAEAAVLAACSLAQEHPNADIAKLCIKAASEAAEAASKAAELAQRHPDSQAARDAIKLASQAARAVILAIMLAAENPNADIAKLCIKAASEAAEAASKAAELAQRHPDSQAARDAIKLASQAAEAVERAIWLAAENPNADIAKKCIKAASEAAEEASKAAEEAQRHPDSQKARDEIKEASQKAEEVKERCKS
On to B4, for which the “binding to NS3a/grazoprevir complex” value with NS3a/grazoprevir complex (yeast surface display) is reported as “modest, grazoprevir-dependent binding”. Besides, in the series with NS3a/grazoprevir complex (yeast surface display), the “specificity for binding grazoprevir/NS3a over NS3a with danoprevir or asunaprevir, or apo NS3a” value is “high specificity”. Besides, the relative binding entry was “++” with NS3a/grazoprevir complex, “+” with NS3a/asunaprevir complex and “no binding” with NS3a/danoprevir complex. Also, the Fold drug specificity result is recorded as “modest” with NS3a/asunaprevir complex (setting [4]) and “high” with NS3a/danoprevir complex.

B5: GNCR1: grazoprevir/NS3a complex reader 1, 4 mutations from G3, SEQ ID NO: 11 (protein)
chain: B4 chain with E42L, E44V, A49T, S52L
Take B5: in the series with apo NS3a, the “binding to apo NS3a” value is reported as “little-to-no affinity”. Besides, the Kd with NS3a/grazoprevir complex was 140 nM and < 200 nM; with NS3a/asunaprevir complex it was greater than 10000 nM; with NS3a/danoprevir complex it was greater than 10000 nM. Further, in the series with NS3a/grazoprevir complex (yeast surface display), the “specificity for binding grazoprevir/NS3a over NS3a with danoprevir or asunaprevir, or apo NS3a” value is “high specificity”. The Fold drug specificity in the series with NS3a/asunaprevir complex (setting [4]) and with NS3a/danoprevir complex was greater than 71 fold throughout. The “binding to asunaprevir-bound NS3a” value with NS3a/asunaprevir complex (yeast surface display) is given as “little-to-no affinity”. Besides, in the series with NS3a/danoprevir complex, the “binding to NS3a/danoprevir complex” value was “little-to-no affinity”.

Source of the values: patent publication US20220025003A1, “REAGENTS AND METHODS FOR CONTROLLING PROTEIN FUNCTION AND INTERACTION” (University of Washington, priority 2018, published 2022).
